Data taken from patent publication US20210147566A1.

Biological target: human transferrin receptor (TFR) on Raji cells (human) (UniProt P02786)
Test: FACS on Raji cells, secondary antibody without IgG1 clone [CONTINUED]

Chain of human transferrin receptor (TFR) on Raji cells (human) (P02786 whole entry): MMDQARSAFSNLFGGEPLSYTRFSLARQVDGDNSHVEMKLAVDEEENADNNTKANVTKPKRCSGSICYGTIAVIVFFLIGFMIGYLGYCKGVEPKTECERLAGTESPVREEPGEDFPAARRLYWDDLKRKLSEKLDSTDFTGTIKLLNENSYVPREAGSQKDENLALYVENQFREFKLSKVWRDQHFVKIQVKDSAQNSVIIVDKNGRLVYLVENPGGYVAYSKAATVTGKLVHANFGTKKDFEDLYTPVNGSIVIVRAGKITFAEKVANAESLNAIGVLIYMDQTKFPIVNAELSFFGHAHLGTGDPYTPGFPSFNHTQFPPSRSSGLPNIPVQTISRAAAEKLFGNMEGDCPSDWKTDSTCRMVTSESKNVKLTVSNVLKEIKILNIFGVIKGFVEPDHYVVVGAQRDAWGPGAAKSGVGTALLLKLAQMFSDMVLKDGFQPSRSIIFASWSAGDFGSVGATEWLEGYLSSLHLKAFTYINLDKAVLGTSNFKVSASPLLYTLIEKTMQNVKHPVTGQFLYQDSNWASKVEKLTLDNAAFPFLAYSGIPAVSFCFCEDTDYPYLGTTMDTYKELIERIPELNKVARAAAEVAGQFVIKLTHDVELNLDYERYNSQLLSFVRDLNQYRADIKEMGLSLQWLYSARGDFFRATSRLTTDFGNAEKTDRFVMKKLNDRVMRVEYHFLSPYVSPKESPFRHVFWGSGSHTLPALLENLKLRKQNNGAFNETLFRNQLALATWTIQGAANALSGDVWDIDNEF

ANTI-FAB ALEXA FLUOR 647 (antibody)
TFR gate, percent of cells: 19.1
